Test system: human SAH hydrolase
Assay: SAH hydrolase activity assay, hydrolytic direction (kinetic constants for SAH)
Format: biochemical
Conditions: substrate SAH; wild type vs mutant SAH hydrolase
Protocol: The cell-free extracts from colonies that inducibly overexpressed mutant SAH hydrolase proteins were chromatographed on a monoQ column (HR5/5) equipped with FPLC system. Proteins were eluted with a linear gradient of NaCl from 0 to 1 M in 10 mM sodium phosphate buffer, pH 7.0 over 35 min. The major protein peak that eluted at the same or close retention time as that of the wild type SAH hydrolase was collected. An aliquot collected mutant SAH hydrolase (1-10 μg) was incubated with [^3H]SAH (10 mCi/mmole, 200 μM) and 30 μM of 5, 5′-dithiobis (2-nitrobenzoic acid) (DTNB) at room temperature for 5-30 min.
The reaction solution was filtered through a membrane of molecular weight cut-off at 30,000 by centrifugation. The filtrate was measured at 412 nm for Hcy formation (enzyme activity) and the [^3H] radioactivity on the membrane was measured by scintillation counting after membrane washing with 1 ml of 50 mM phosphate buffer, pH 7.0.
The mutant hydrolases that show high radioactivity on the membrane and low O.D. at 412 nm of the filtrate relative to the wild type enzyme were selected as candidates for further characterization including determination of Km or Kd and binding energy (ΔG).
The assay of SAH hydrolase activity in the hydrolytic direction was performed as described in Yuan et al., J. Biol Chem., 271:28008-28016, 1996). The assay measures the hydrolysis of SAH into Ado and Hcy. The reaction product Hcy was derivatized by thiol specific reagent DTNB for colometric determination at 412 nm. The assay for SAH hydrolase in the synthetic direction was measured by the formation of SAH from substrate Ado and Hcy using HPLC (see, Yuan et al., J. Biol. Chem., 268:17030-17037 (1993). One unit of the enzyme activity was defined as the amount of enzyme that can hydrolyze or synthesize 1 μmole of SAH/min/mg.

B1: F302S: mutant human SAH hydrolase, Phe302 to Ser; substrate trapping enzyme (protein, UniProt P23526 2-432, looked up, variant F302S)
Adenosylhomocysteinase: SDKLPYKVADIGLAAWGRKALDIAENEMPGLMRMRERYSASKPLKGARIAGCLHMTVETAVLIETLVTLGAEVQWSSCNIFSTQDHAAAAIAKAGIPVYAWKGETDEEYLWCIEQTLYFKDGPLNMILDDGGDLTNLIHTKYPQLLPGIRGISEETTTGVHNLYKMMANGILKVPAINVNDSVTKSKFDNLYGCRESLIDGIKRATDVMIAGKVAVVAGYGDVGKGCAQALRGFGARVIITEIDPINALQAAMEGYEVTTMDEACQEGNIFVTTTGCIDIILGRHFEQMKDDAIVCNIGHSDVEIDVKWLNENAVEKVNIKPQVDRYRLKNGRRIILLAEGRLVNLGCAMGHPSFVMSNSFTNQVMAQIELWTHPDKYPVGVHFLPKKLDEAVAEAHLGKLNVKLTKLTEKQAQYLGMSCDGPFKPDHYRY
With B1 the “Kcat (SAH)” value was 0.1 S^−1 and the Km was 1 µM.

B2: wild type: wild type human placental SAH hydrolase (SEQ ID No. 1), recombinant from E. coli (protein, listed as Homo sapiens)
chain: MSDKLPYKVADIGLAAWGRKALDIAENEMPGLMRMRERYSASKPLKGARIAGCLHMTVETAVLIETLVTLGAEVQWSSCNIFSTQNHAAAAIAKAGIPVYAWKGETDEEYLWCIEQTLYFKDGPLNMILDDGGDLTNLIHTKYPQLLPGIRGISEETTTGVHNLYKMMANGILKVPAINVNDSVTKSKFDNLYGCRESLIDGIKRATDVMIAGKVAVVAGYGDVGKGCAQALRGFGARVIITEIDPINALQAAMEGYEVTTMDEACQEGNIFVTTTGCIDIILGRHFEQMKDDAIVCNIGHFDVEIDVKWLNENAVEKVNIKPQVDRYRLKNGRRIILLAEGRLVNLGCAMGHPSFVMSNSFTNQVMAQIELWTHPDKYPVGVHFLPKKLDEAVAEAHLGKLNVKLTKLTEKQAQYLGMSCDGPFKPDHYRY
modifications: Human S-adenosylhomocysteine hydrolase protein sequence
In the case of B2, the “Kcat (SAH)” value is reported as 3.8 S^−1 and the Km is reported as 7.9 µM.
